The nanobody polyreactivity screen of Harvey et al. (2022)

Assay: yeast display, Sf9 membrane polyspecificity reagent, FACS + sequencing; frameworks hold sequencing errors
In short: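 Genes from sorted yeast were amplified by colony PCR, read by MiSeq 2 × 250 sequencing and filtered on CDR length. These cells carried a synthetic nanobody library in Saccharomyces cerevisiae BJ5465 and were sorted by FACS into low and high (top ~1%) gates on anti-HA and streptavidin fluorescence. Polyreactivity is labelled according to the gate of origin.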

| Sequence | polyreactivity (PSR sort gate) |
| --- | --- |
| QVQLVESGGGLVQAGGSLRLSCAASGSTLDFNAMGWYRQAPGKERELVATITYGVGKNYADSVKGRFTISRDNAKNTVYLQMNSLKPEDTAVYYCAANNWDYARYTYWYYSFLAYDYWGQGTQVTVSS | low polyreactivity |
| QVQLVESGGGLVQAGGSLRLSCAASGSTLDIYAMGWYRQAPGKERELVAAITSGGSTNYADSVKGRFTISRDNAKNTVYLQMNSLKPEDTAVYYCNARYFRGYDYWGQGTQVTVSS | high polyreactivity |
| QVQLVESGGGLVQAGGSLRLSCAASGSTLDRNTMGWYRAAPGKESELVAAITWSGGRTYYADSVKGRFTISRDNANNSVYLQLNSLKPEDTAVYYCNKDYWKRPVDEYDYWGQGTQVTVSS | high polyreactivity |
| QVQLVESGGGLVQAGGSLRLSCAASGSTLDSNAMGWYRQAPGKERELVAGIDWSGGSTYADSVKGRFTISRDNAKNTVYLQMNSLKPEDTAVYYCAKVSRYVQPYSRFDYWGQGTQVTVSS | low polyreactivity |
| QVQLVESGGGLVQAGGSLRLSCAASGSTLDYNAMGWYRQATGKERELVAAINWSGGRTYYADSVKGRFTISRDNAKNTVYLQMNSLKPEDTAVYFCAAVDYKAKGYGYWGQGTQVTVSS | high polyreactivity |
| QVQLVESGGGLVQAGGSLRLSCAASGSTLEPNAMGWYRQAPGKERELVAAITIGGSTYYADSVKGRFTISRDNAKNTVYLQMNSLKPEDTSVYYCARRVSRYSWRNYWGQGTQVTVSS | high polyreactivity |
| QVQLVESGGGLVQAGGSLRLSCAASGSTLERYTMGWYRQAPGKERELVAAIRWSGTSTYYADSVKGRFTISRDNAKNTVYLQMKSLKPEDTAVYYCARVGFSRYYRTMYYWGQGTQVTVSS | high polyreactivity |
| QVQLVESGGGLVQAGGSLRLSCAASGSTLFIYAMGWYRQAPGKEREFVAGISYSGGSTYYADSVKGRFTISRDNAKNTVYLQMNSLKPEDTAVYYCAARTFSKPLTYRPYSGLFYYWGQGTQVTVSS | high polyreactivity |
| QVQLVESGGGLVQAGGSLRLSCAASGSTLFLYAMGWYRQAPGKERELVAAITWSGGSTYYADSVKGRFTISRDNAKKTVYLQMNSLKPEDTAVYYCAKYGRYFWNSGVDYWGQGTQVTVSS | high polyreactivity |
| QVQLVESGGGLVQAGGSLRLSCAASGSTLFSYAMGWYRQAPGKEREFVAAISRRGGSTYYEDSVKGRFTISRDYAKNTVYLQMNSLKPEETAVYYCAARDSSYNWYGYWGQGTQVTVSW | high polyreactivity |
| QVQLVESGGGLVQAGGSLRLSCAASGSTLFYNDMGWYRQAPGKEREFVAAIRSNDGSTYYADSVKGRFTISRDNAKNTVYLQMKSLKPEDTAVYYCNKDVWDGYDWPEFDYWGQGTQVTVSS | low polyreactivity |
| QVQLVESGGGLVQAGGSLRLSCAASGSTLGGSVMGWSRQAPGKERELVASITYSGGSTRYADSVKGRFTISRDNAKNTVYLQMNSLKPEDTAVYYCAAGAQRTYYTYSFRRVGYDYDYWGQGTQVTVSS | low polyreactivity |
| QVQLVESGGGLVQAGGSLRLSCAASGSTLGHNAMGWYRQAPGKERELVAAITSSGGRTYYADSVKGRFTISRDNAKNTVYLQMYSLKPEDTAVYYCAAKLHGYYDVFGQSHRTYDYWGQGTQVTVSS | high polyreactivity |
| QVQLVESGGGLVQAGGSLRLSCAASGSTLGLNAMGWYRHAPRKEREFVAAISQGGTRTYYADSVKGRLTNSRDNAKNCVYLQMNSLKPEDTAVYYCAALRHRTRAASGGDYWGQGTQVNVSS | high polyreactivity |
| QVQLVESGGGLVQAGGSLRLSCAASGSTLGPNVMGWYRQAPGKERELVAAISWRGGSTYYADSVKGRFTISRDNAKNTVYLQMNSLKPEDTAVNYGAARTTTYPYGYWGQGTQVTVSS | high polyreactivity |
| QVQLVESGGGLVQAGGSLRLSCAASGSTLGRNAMGWYRQAPGKERELVAGIDGSAGSTYYADSVKGRFTISRDNAKNSVYLQMNSLKPEDTAVYYCNADVIDLDYDYWGQGTQVTVSS | low polyreactivity |

| Sequence | polyreactivity (PSR sort gate) |
| --- | --- |
| QVQLVESGGGLVQAGGSLRLSCAASGSTLGRNVMGWYRQAPGKERELVAAISSRGSRTYYADSVKGRFTISRDNAKNTVYLQMNSLKPEDTAVYYCNRGWAHSNAKFDYWGQGTQVTVSS | high polyreactivity |
| QVQLVESGGGLVQAGGSLRLSCAASGSTLGRYTLGWYRQAPGNERELVAAIRASGTSTYYADSVKGRFTISRDNAKNTVYLQMNSLKPEDTAVYYCNALQFGTVRLDSWGQGTQVTVSS | low polyreactivity |
| QVQLVESGGGLVQAGGSLRLSCAASGSTLGSNTMGWYRQAPGKERELVATISRRGGSTYYADSVKGRFTISRDNAKNTVYLQMNSLKPEDTAVYYCAAPPVYKFTNGDYRSTFFHWGQGTQVTVSS | high polyreactivity |
| QVQLVESGGGLVQAGGSLRLSCAASGSTLGYYAMGWYRQAPGKERELVATITRSGGNTYYADSVKGRFTISRDNAKNTVYLQMNSLKPEDTAVYYCAARRLYGSQRGYWGQGTQVTVSS | high polyreactivity |
| QVQLVESGGGLVQAGGSLRLSCAASGSTLGYYDMGWYRQAPGKERELVAAITKSGGSTYYADSVKGRFTISRDNEKNNVYLQMNSLKPEDTAVYYCAAVYVSPKPGTRYYYWGQGTQVTVSS | high polyreactivity |
| QVQLVESGGGLVQAGGSLRLSCAASGSTLGYYTMGWYRQAPGKERELVAAISGSGVTTSYADSVKGRFTISRDNAKNTVYLQMNSLKPEDTAVYYCARRYRVGTTGGDYWGQGTQVTVSS | high polyreactivity |
| QVQLVESGGGLVQAGGSLRLSCAASGSTLGYYVMGWYRQAPGKERELVAAITGGGSTDYADSVKGRFTISRDNEKNTVYLQMNSLKPEDTAVYYCAAERTRTGQLFWWGPIYDYWGQGTQVTVSS | low polyreactivity |
| QVQLVESGGGLVQAGGSLRLSCAASGSTLHSYAMGWYRQAPGKERELVAAISFRGGSTYADSVKGRFTISRDNAKNTVYLQMNSLKPEDTAVYYCAAYSVYTMYWGQGTQVTVSS | low polyreactivity |
| QVQLVESGGGLVQAGGSLRLSCAASGSTLLYYAMGWYRQAPGKERELVAAISSTGSTNYADSVKGRFTISRDNAKNTVYLQMKSLKPEDTAVYYCAADYSVPTSQAYDYWGQGTQVTVSS | low polyreactivity |
| QVQLVESGGGLVQAGGSLRLSCAASGSTLNRNVMGWYRQAPGKERELVAVITYGVGSTYYADSVKGRFTISRDNAKNTVYLQMNSLKPEDTAVYYCNKDPLVFDYWGQGTQVTVSS | low polyreactivity |
| QVQLVESGGGLVQAGGSLRLSCAASGSTLNRYAMGWYRQAPGKERELVAAINGSGGSTYYADSVKGRFTISRENAKNTVYLLINSLKQEDSAVYYCAAYGYSFAYGAYGYWGQGTQVTVSS | high polyreactivity |
| QVQLVESGGGLVQAGGSLRLSCAASGSTLPANAMGWYRQAPGKERELVAAITITTDGSTYYADSVKGRFTISRDNAKNTVYLQLNSLKPEDTAVYYCAVARYRYHIRKMGYWGQGTQVTVSS | low polyreactivity |
| QVQLVESGGGLVQAGGSLRLSCAASGSTLPFNAMGCYRQAPGKERELVAAISSGSSTNYADSVKGRFTISRDNAKNTVYLKMNSLKPEDTAVYYCNARPRANQLGDYYKPGTYDYWGQGTQVTVSS | low polyreactivity |
| QVQLVESGGGLVQAGGSLRLSCAASGSTLPVYAMGWYRQAPGKERELVATITDTGITNYADSVKGRFTLSRDNAKNTVYLQMNSLKPEDTAVYYCAVDSTGVWPYQVGYAPYDYWGQGTQVTVSS | low polyreactivity |
| QVQLVESGGGLVQAGGSLRLSCAASGSTLQDNAMGWYRQAPGKDRELVAAITTGSTTYADSVKGRFTISRDNAKNTVYIQMNSLKPEDTAVYYCAADSEEYDGYTWWVFKFDYWGQGTQVTVSS | low polyreactivity |
